Measurements: patent publication US20260250320A1, “LIPIDATED PEPTIDE INHIBITORS OF INTERLEUKIN-23 RECEPTOR” (Janssen Pharmaceutica NV, priority 2023, published 2026)
*1 amine or outer side, *2 acyl side, *3 side chain or, on linkers, in order; H or OH if unused. Bridges are numbered along the chain shown (N, C = ends). Primed or numbered codes have the meaning given here. Where no end group is shown, it is not given here. Side-chain parts run from the residue outwards. [ ]: non-standard residue; d: D form. K(d) = (2R)-2-(4-((5-amino-5-carboxypentyl)amino)-4-oxobutanamido)-3-carboxy-N,N,N-trimethylpropan-1-aminium, C[N+](C)(C)C[C@@H](CC(=O)[*:3])NC(=O)CCC(=O)NCCCC[C@H](N[*:1])C(=O)[*:2]; TMAPF = 5-(4-(2-amino-2-carboxyethyl)phenoxy)-N,N,N-trimethylpentan-1-aminium, C[N+](C)(C)CCCCCOc1ccc(C[C@H](N[*:1])C(=O)[*:2])cc1; PEG2′ = PEG2 spacer unit (not further defined); Trp(7-Me) = Cc1cccc2c(C[C@H](N)C(=O)O)c[nH]c12; γGlu = O=C(O)[C@H](CCC(=O)[*:2])N[*:1]; 2Nal = N[C@@H](Cc1ccc2ccccc2c1)C(=O)O; AEF = NCCOc1ccc(C[C@H](N)C(=O)O)cc1; 3Pal = N[C@@H](Cc1cccnc1)C(=O)O; NMecPEG3a = not defined here; Pen = CC(C)(S)[C@H](N)C(=O)O; PEG2(3) = not defined here; PEG12′ = not defined here; PEG2″ = PEG2 spacer unit; Thp = NC1(C(=O)O)CCOCC1; Sar = CNCC(=O)O

B1: SEQ ID NO: 74 (peptide)
peptide: Ac-[dR][Pen]K([PEG2″-PEG2″-γGlu-C18OH])T[Trp(7-Me)]K(Ac)[Pen][AEF][2Nal][Thp]K(NMecPEG3a)N[3Pal][Sar]-NH2
modifications: disulfide 2-7 (inferred); reading uncertain; also: printed as MeCO-r-Pen(3)-K(PEG2PEG2gEC18OH)-T-7MeW-K(Ac)-Pen(3)-AEF-2Nal-THP-K(NMecPEG3a)-N-3Pya-Sar-CONH2
B2: SEQ ID NO: 76 (peptide)
peptide: Ac-[dR][Pen]K([PEG2″-PEG2″-γGlu-C18OH])T[Trp(7-Me)]K(NMecPEG3a)[Pen][AEF][2Nal][Thp]EN[3Pal][Sar]-NH2
modifications: disulfide 2-7 (inferred); reading uncertain; also: printed as MeCO-r-Pen(3)-K(PEG2PEG2gEC18OH)-T-7MeW-K(NMecPEG3a)-Pen(3)-AEF-2Nal-THP-E-N-3Pya-Sar-CONH2
B3: SEQ ID NO: 82 (peptide)
peptide: {HOC18-γGlu-PEG2″-PEG2″}-[dR][Pen]NT[Trp(7-Me)]K(Ac)[Pen][AEF][2Nal][Thp]K(NMecPEG3a)N[3Pal][Sar]-NH2
modifications: disulfide 2-7 (inferred); not fully specified; printed as HOC18gEPEG2PEG2CO-r-Pen(3)-N-T-7MeW-K(Ac)-Pen(3)-AEF-2Nal-THP-K(NMecPEG3a)-N-3Pya-Sar-CONH2; reading uncertain
B4: SEQ ID NO: 84 (peptide)
peptide: {HOC18-γGlu-PEG2′-PEG2′}-[dR][Pen]NT[Trp(7-Me)]K(NMecPEG3a)[Pen][AEF][2Nal][Thp]EN[3Pal][Sar]-NH2
modifications: disulfide 2-7 (inferred); not fully specified; printed as HOC18gEPEG2PEG2CO-r-Pen(3)-N-T-7MeW-K(NMecPEG3a)-Pen(3)-AEF-2Nal-THP-E-N-3Pya-Sar-CONH2; reading uncertain
B5: SEQ ID NO: 86 (peptide)
peptide: XNTXKXXXXKNXX
modifications: MeCO-Pen(3)-N-T-7MeW-K(NMecPEG3a)-Pen(3)-AEF-2Nal-THP-K(PEG2PEG2gEC18OH)-N-3Pya-Sar-CONH2
B6: SEQ ID NO: 10 (peptide)
peptide: Ac-[dR][Pen][K(d)]T[Trp(7-Me)]K(Ac)[Pen][AEF][2Nal][Thp]EN[3Pal][Sar]-NH2
modifications: disulfide 2-7 (inferred); not fully specified (residue 8); printed as MeCO-r-Pen(3)-K(d)-T-7MeW-K(Ac)-Pen(3)-AEF(PEG2PEG2gEC18OH)-2Nal-THP-E-N-3Pya-Sar-CONH2
B7: SEQ ID NO: 147 (peptide)
peptide: XNTXXXXXXENXX
modifications: not fully specified; MeCO-Pen(3)-N-T-7MeW-K(Ac)-Pen(3)-AEF-2Nal-THP-E-N-3Pya-Sar-CO(PEG2PEG2gEC18OH)
B8: SEQ ID NO: 1 (peptide)
peptide: XNTXXXXXXENXXK
modifications: MeCO-Pen(3)-N-T-7MeW-K(Ac)-Pen(3)-AEF-2Nal-THP-E-N-3Pya-Sar-K(Sar-S-Sar-S-Sar-S-Sar-C14)-CONH2
B9: SEQ ID NO: 64 (peptide)
peptide: XNTXXXXXXKNXX
modifications: not fully specified; MeCO-Pen(3)-N-T-7MeW-K(Ac)-Pen(3)-AEF-2Nal-THP-K(PEG2PEG2gEC18OH)-N-3Pya-Sar-CONH(PEG3a)
B10: SEQ ID NO: 65 (peptide)
peptide: Ac-[dR][Pen]NT[Trp(7-Me)]K([PEG2″-PEG2″-γGlu-C18OH])[Pen][AEF][2Nal][Thp]EN[3Pal][Sar]
modifications: disulfide 2-7 (inferred); not fully specified (C-terminus); printed as MeCO-r-Pen(3)-N-T-7MeW-K(PEG2PEG2gEC18OH)-Pen(3)-AEF-2Nal-THP-E-N-3Pya-Sar-CONH(PEG3a)
B11: SEQ ID NO: 66 (peptide)
peptide: Ac-[dR][Pen]K([PEG2″-PEG2″-γGlu-C18OH])T[Trp(7-Me)]K(Ac)[Pen][AEF][2Nal][Thp]EN[3Pal][Sar]
modifications: disulfide 2-7 (inferred); not fully specified (C-terminus); printed as MeCO-r-Pen(3)-K(PEG2PEG2gEC18OH)-T-7MeW-K(Ac)-Pen(3)-AEF-2Nal-THP-E-N-3Pya-Sar-CONH(PEG3a)

Molecular target: T1, interleukin-23 receptor (IL-23R) (UniProt Q5VWK5 24-629, limits assumed)
T1 sequence (looked up): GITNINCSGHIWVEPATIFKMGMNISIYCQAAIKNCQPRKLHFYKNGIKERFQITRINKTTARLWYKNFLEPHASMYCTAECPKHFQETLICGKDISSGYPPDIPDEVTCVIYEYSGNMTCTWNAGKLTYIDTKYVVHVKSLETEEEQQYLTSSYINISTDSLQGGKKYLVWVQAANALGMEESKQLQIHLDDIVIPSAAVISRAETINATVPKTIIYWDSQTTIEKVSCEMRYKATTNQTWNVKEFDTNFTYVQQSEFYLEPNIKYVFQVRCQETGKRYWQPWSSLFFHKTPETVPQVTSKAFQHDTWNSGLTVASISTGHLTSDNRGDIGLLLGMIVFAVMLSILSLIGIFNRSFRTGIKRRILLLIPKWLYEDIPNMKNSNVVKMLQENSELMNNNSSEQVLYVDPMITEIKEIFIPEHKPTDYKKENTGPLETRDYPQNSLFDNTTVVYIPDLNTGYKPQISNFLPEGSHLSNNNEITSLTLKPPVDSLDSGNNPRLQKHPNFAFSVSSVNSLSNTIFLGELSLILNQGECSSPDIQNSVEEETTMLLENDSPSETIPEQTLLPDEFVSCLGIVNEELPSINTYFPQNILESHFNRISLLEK
Assay: cell-based or functional assay

PBMC pSTAT3 IC50, < 0.5 nM:
B1, Ac-[dR][Pen]K([PEG2″-PEG2″-γGlu-C18OH])T[Trp(7-Me)]K(Ac)[Pen][TMAPF][2Nal][Thp]EN[3Pal][Sar]-NH2 (disulfide 2-7 (inferred)) [SEQ ID NO: 75], B2, Ac-[dR][Pen]NT[Trp(7-Me)]K(Ac)[Pen][AEF]([PEG2′-PEG2′-γGlu-C18OH])[2Nal][Thp][K(d)]N[3Pal][Sar]-NH2 (disulfide 2-7 (inferred)) [SEQ ID NO: 9], B3, {HOC18-γGlu-PEG2″-PEG2″}-[dR][Pen]NT[Trp(7-Me)]K(Ac)[Pen][TMAPF][2Nal][Thp]EN[3Pal][Sar]-NH2 (disulfide 2-7 (inferred); not fully specified) [SEQ ID NO: 83], B4, XNTXKXXXXENXX (MeCO-Pen(3)-N-T-7MeW-K(PEG12gEC18OH)-Pen(3)-AEF-2Nal-THP-E-N-3Pya-Sar-CONH2) [SEQ ID NO: 96], Ac-[Pen]K([PEG12′-γGlu-C18OH])T[Trp(7-Me)]K(Ac)[Pen][AEF][2Nal][Thp]EN[3Pal][Sar]-NH2 (disulfide 1-6 (inferred)) [SEQ ID NO: 97], Ac-[Pen]NT[Trp(7-Me)]K(Ac)[Pen][TMAPF][2Nal][Thp]K([PEG2′-PEG2′-γGlu-C18OH])N[3Pal][Sar]-NH2 (disulfide 1-6 (inferred)) [SEQ ID NO: 85], B5, Ac-[dR][Pen]NT[Trp(7-Me)]K(Ac)[Pen][AEF][2Nal][Thp]K([PEG12′-γGlu-C18OH])N[3Pal][Sar]-NH2 (disulfide 2-7 (inferred)) [SEQ ID NO: 146], cPEG3aCO-[dR][Pen]NT[Trp(7-Me)]K(Ac)[Pen][AEF][2Nal][Thp]EN[3Pal][Sar]K([PEG2(3)-PEG2(3)-γGlu-C18OH])-NH2 (disulfide 2-7 (inferred)) [SEQ ID NO: 160], XNTXXXXXXKNXX (MeCO-Pen(3)-N-T-7MeW-K(Ac)-Pen(3)-AEF-2Nal-THP-K(PEG12gEC20OH)-N-3Pya-Sar-CONH2) [SEQ ID NO: 162]

Molecular target: T1, interleukin-23 receptor (IL-23R)
Assay: cell-based or functional assay
Remark: another data set of the same source

IC50, IL23R reporter assay, ≥ 500 nM:
B7, B9, B10, B11

IC50, IL23R reporter assay, < 50 nM:
B1, Ac-[dR][Pen]K([PEG2″-PEG2″-γGlu-C18OH])T[Trp(7-Me)]K(Ac)[Pen][TMAPF][2Nal][Thp]EN[3Pal][Sar]-NH2 (disulfide 2-7 (inferred)) [SEQ ID NO: 75], B2, Ac-[dR][Pen]NT[Trp(7-Me)]K(Ac)[Pen][AEF]([PEG2′-PEG2′-γGlu-C18OH])[2Nal][Thp][K(d)]N[3Pal][Sar]-NH2 (disulfide 2-7 (inferred)) [SEQ ID NO: 9], B3, {HOC18-γGlu-PEG2″-PEG2″}-[dR][Pen]NT[Trp(7-Me)]K(Ac)[Pen][TMAPF][2Nal][Thp]EN[3Pal][Sar]-NH2 (disulfide 2-7 (inferred); not fully specified) [SEQ ID NO: 83], B4, B6, XNTXKXXXXENXX (MeCO-Pen(3)-N-T-7MeW-K(PEG12gEC18OH)-Pen(3)-AEF-2Nal-THP-E-N-3Pya-Sar-CONH2) [SEQ ID NO: 96], Ac-[Pen]K([PEG12′-γGlu-C18OH])T[Trp(7-Me)]K(Ac)[Pen][AEF][2Nal][Thp]EN[3Pal][Sar]-NH2 (disulfide 1-6 (inferred)) [SEQ ID NO: 97], Ac-[dR][Pen]K([PEG2(3)-PEG2(3)-γGlu-C18OH])T[Trp(7-Me)]K(Ac)[Pen][AEF][2Nal][Thp][K(d)]N[3Pal][Sar]-NH2 (disulfide 2-7 (inferred)) [SEQ ID NO: 12], B8, RXNTWXXXXXENXX (C12gEPEG2PEG2CO-r-Abu(1)-N-T-W-K(Ac)-aMeC(1)-AEF-2Nal-THP-E-N-3Pya-Sar-CONH2) [SEQ ID NO: 5]
